Substrate in the series: O=Cc1cccc(C(=O)O)c1
In words: initial rates by HPLC, Michaelis-Menten fit. The format is biochemical, Escherichia coli. Particulars: 50 mM Li-hydroxypyruvate, 50 mM Tris-HCl pH 7.0, 2.4 mM ThDP, 9 mM MgCl2, 22 °C. The source says: initial rates by HPLC, Michaelis-Menten fit on transketolase (TK)

B1: transketolase (TK) (Escherichia coli K-12; A282P/D469T/G506A/H192P/I365L/R520Q/S385Y) (protein)
chain: MSSRKELANAIRALSMDAVQKAKSGHPGAPMGMADIAEVLWRDFLKHNPQNPSWADRDRFVLSNGHGSMLIYSLLHLTGYDLPMEELKNFRQLHSKTPGHPEVGYTAGVETTTGPLGQGIANAVGMAIAEKTLAAQFNRPGHDIVDHYTYAFMGDGCMMEGISHEVCSLAGTLKLGKLIAFYDDNGISIDGPVEGWFTDDTAMRFEAYGWHVIRDIDGHDAASIKRAVEEARAVTDKPSLLMCKTIIGFGSPNKAGTHDSHGAPLGDAEIALTREQLGWKYPPFEIPSEIYAQWDAKEAGQAKESAWNEKFAAYAKAYPQEAAEFTRRMKGEMPSDFDAKAKEFIAKLQANPAKIASRKASQNALEAFGPLLPEFLGGSADLAPYNLTLWSGSKAINEDAAGNYIHYGVREFGMTAIANGISLHGGFLPYTSTFLMFVEYARNAVRMAALMKQRQVMVYTHDSIGLGETGPTHQPVEQVASLRVTPNMSTWRPCDQVESAVAWKYAVERQDGPTALILSQQNLAQQERTEEQLANIARGGYVLKDCAGQPELIFIATGSEVELAVAAYEKLTAEGVKARVVSMPSTDAFDKQDAAYRESVLPKAVTARVAVEAGIADYWYKYVGLNGAIVGMTTFGESAPAELLFEEFGFTVDNVVAKAKELL
notes: recombinant from plasmid pQR791, purified; homodimer
For the protein B1, the Km is listed as 2.3 (0.3) mM, the kcat was found to be 3.8 s⁻¹ and the kcat/Km was 1650 M⁻¹ s⁻¹.

B2: transketolase (TK) (Escherichia coli K-12; A282P/D469T/H192P/R520Q/S385Y) (protein)
chain: MSSRKELANAIRALSMDAVQKAKSGHPGAPMGMADIAEVLWRDFLKHNPQNPSWADRDRFVLSNGHGSMLIYSLLHLTGYDLPMEELKNFRQLHSKTPGHPEVGYTAGVETTTGPLGQGIANAVGMAIAEKTLAAQFNRPGHDIVDHYTYAFMGDGCMMEGISHEVCSLAGTLKLGKLIAFYDDNGISIDGPVEGWFTDDTAMRFEAYGWHVIRDIDGHDAASIKRAVEEARAVTDKPSLLMCKTIIGFGSPNKAGTHDSHGAPLGDAEIALTREQLGWKYPPFEIPSEIYAQWDAKEAGQAKESAWNEKFAAYAKAYPQEAAEFTRRMKGEMPSDFDAKAKEFIAKLQANPAKIASRKASQNAIEAFGPLLPEFLGGSADLAPYNLTLWSGSKAINEDAAGNYIHYGVREFGMTAIANGISLHGGFLPYTSTFLMFVEYARNAVRMAALMKQRQVMVYTHDSIGLGETGPTHQPVEQVASLRVTPNMSTWRPCDQVESAVAWKYGVERQDGPTALILSQQNLAQQERTEEQLANIARGGYVLKDCAGQPELIFIATGSEVELAVAAYEKLTAEGVKARVVSMPSTDAFDKQDAAYRESVLPKAVTARVAVEAGIADYWYKYVGLNGAIVGMTTFGESAPAELLFEEFGFTVDNVVAKAKELL
notes: as for B1
Regarding B2, the Km is given as 1.3 (0.2) mM, the kcat was found to be 2.9 s⁻¹ and the kcat/Km was 2230 M⁻¹ s⁻¹.

B3: transketolase (TK) (Escherichia coli K-12; D469T/R520Q/S385Y) (protein)
chain: MSSRKELANAIRALSMDAVQKAKSGHPGAPMGMADIAEVLWRDFLKHNPQNPSWADRDRFVLSNGHGSMLIYSLLHLTGYDLPMEELKNFRQLHSKTPGHPEVGYTAGVETTTGPLGQGIANAVGMAIAEKTLAAQFNRPGHDIVDHYTYAFMGDGCMMEGISHEVCSLAGTLKLGKLIAFYDDNGISIDGHVEGWFTDDTAMRFEAYGWHVIRDIDGHDAASIKRAVEEARAVTDKPSLLMCKTIIGFGSPNKAGTHDSHGAPLGDAEIALTREQLGWKYAPFEIPSEIYAQWDAKEAGQAKESAWNEKFAAYAKAYPQEAAEFTRRMKGEMPSDFDAKAKEFIAKLQANPAKIASRKASQNAIEAFGPLLPEFLGGSADLAPYNLTLWSGSKAINEDAAGNYIHYGVREFGMTAIANGISLHGGFLPYTSTFLMFVEYARNAVRMAALMKQRQVMVYTHDSIGLGETGPTHQPVEQVASLRVTPNMSTWRPCDQVESAVAWKYGVERQDGPTALILSQQNLAQQERTEEQLANIARGGYVLKDCAGQPELIFIATGSEVELAVAAYEKLTAEGVKARVVSMPSTDAFDKQDAAYRESVLPKAVTARVAVEAGIADYWYKYVGLNGAIVGMTTFGESAPAELLFEEFGFTVDNVVAKAKELL
notes: as for B1
For the protein B3, the Km is 2.3 (0.3) mM, the kcat was 2.8 s⁻¹ and the kcat/Km was found to be 1220 M⁻¹ s⁻¹.

B4: transketolase (TK) (Escherichia coli K-12; A282P/D469T/H192P/I365L/R520Q/S385Y) (protein)
chain: MSSRKELANAIRALSMDAVQKAKSGHPGAPMGMADIAEVLWRDFLKHNPQNPSWADRDRFVLSNGHGSMLIYSLLHLTGYDLPMEELKNFRQLHSKTPGHPEVGYTAGVETTTGPLGQGIANAVGMAIAEKTLAAQFNRPGHDIVDHYTYAFMGDGCMMEGISHEVCSLAGTLKLGKLIAFYDDNGISIDGPVEGWFTDDTAMRFEAYGWHVIRDIDGHDAASIKRAVEEARAVTDKPSLLMCKTIIGFGSPNKAGTHDSHGAPLGDAEIALTREQLGWKYPPFEIPSEIYAQWDAKEAGQAKESAWNEKFAAYAKAYPQEAAEFTRRMKGEMPSDFDAKAKEFIAKLQANPAKIASRKASQNALEAFGPLLPEFLGGSADLAPYNLTLWSGSKAINEDAAGNYIHYGVREFGMTAIANGISLHGGFLPYTSTFLMFVEYARNAVRMAALMKQRQVMVYTHDSIGLGETGPTHQPVEQVASLRVTPNMSTWRPCDQVESAVAWKYGVERQDGPTALILSQQNLAQQERTEEQLANIARGGYVLKDCAGQPELIFIATGSEVELAVAAYEKLTAEGVKARVVSMPSTDAFDKQDAAYRESVLPKAVTARVAVEAGIADYWYKYVGLNGAIVGMTTFGESAPAELLFEEFGFTVDNVVAKAKELL
notes: as for B1
With B4, the Km is given as 1.3 (0.4) mM, the kcat was found to be 2.1 s⁻¹ and the kcat/Km came to 1620 M⁻¹ s⁻¹.

B5: transketolase (TK) (Escherichia coli K-12; A282P/D469T/R520Q/S385Y) (protein)
chain: MSSRKELANAIRALSMDAVQKAKSGHPGAPMGMADIAEVLWRDFLKHNPQNPSWADRDRFVLSNGHGSMLIYSLLHLTGYDLPMEELKNFRQLHSKTPGHPEVGYTAGVETTTGPLGQGIANAVGMAIAEKTLAAQFNRPGHDIVDHYTYAFMGDGCMMEGISHEVCSLAGTLKLGKLIAFYDDNGISIDGHVEGWFTDDTAMRFEAYGWHVIRDIDGHDAASIKRAVEEARAVTDKPSLLMCKTIIGFGSPNKAGTHDSHGAPLGDAEIALTREQLGWKYPPFEIPSEIYAQWDAKEAGQAKESAWNEKFAAYAKAYPQEAAEFTRRMKGEMPSDFDAKAKEFIAKLQANPAKIASRKASQNAIEAFGPLLPEFLGGSADLAPYNLTLWSGSKAINEDAAGNYIHYGVREFGMTAIANGISLHGGFLPYTSTFLMFVEYARNAVRMAALMKQRQVMVYTHDSIGLGETGPTHQPVEQVASLRVTPNMSTWRPCDQVESAVAWKYGVERQDGPTALILSQQNLAQQERTEEQLANIARGGYVLKDCAGQPELIFIATGSEVELAVAAYEKLTAEGVKARVVSMPSTDAFDKQDAAYRESVLPKAVTARVAVEAGIADYWYKYVGLNGAIVGMTTFGESAPAELLFEEFGFTVDNVVAKAKELL
notes: as for B1
Regarding B5, the Km was 2.1 (0.2) mM, the kcat was determined as 3.2 s⁻¹ and the kcat/Km came to 1520 M⁻¹ s⁻¹.

B6: transketolase (TK) (Escherichia coli K-12; A282P/D469T/G506A/H192P/R520Q/S385Y) (protein)
chain: MSSRKELANAIRALSMDAVQKAKSGHPGAPMGMADIAEVLWRDFLKHNPQNPSWADRDRFVLSNGHGSMLIYSLLHLTGYDLPMEELKNFRQLHSKTPGHPEVGYTAGVETTTGPLGQGIANAVGMAIAEKTLAAQFNRPGHDIVDHYTYAFMGDGCMMEGISHEVCSLAGTLKLGKLIAFYDDNGISIDGPVEGWFTDDTAMRFEAYGWHVIRDIDGHDAASIKRAVEEARAVTDKPSLLMCKTIIGFGSPNKAGTHDSHGAPLGDAEIALTREQLGWKYPPFEIPSEIYAQWDAKEAGQAKESAWNEKFAAYAKAYPQEAAEFTRRMKGEMPSDFDAKAKEFIAKLQANPAKIASRKASQNAIEAFGPLLPEFLGGSADLAPYNLTLWSGSKAINEDAAGNYIHYGVREFGMTAIANGISLHGGFLPYTSTFLMFVEYARNAVRMAALMKQRQVMVYTHDSIGLGETGPTHQPVEQVASLRVTPNMSTWRPCDQVESAVAWKYAVERQDGPTALILSQQNLAQQERTEEQLANIARGGYVLKDCAGQPELIFIATGSEVELAVAAYEKLTAEGVKARVVSMPSTDAFDKQDAAYRESVLPKAVTARVAVEAGIADYWYKYVGLNGAIVGMTTFGESAPAELLFEEFGFTVDNVVAKAKELL
notes: as for B1
B6: the Km is given as 2.7 (0.4) mM, the kcat turned out to be 3.9 s⁻¹ and the kcat/Km was 1440 M⁻¹ s⁻¹.

B7: transketolase (TK) (Escherichia coli K-12; D469T/H192P/R520Q/S385Y) (protein)
chain: MSSRKELANAIRALSMDAVQKAKSGHPGAPMGMADIAEVLWRDFLKHNPQNPSWADRDRFVLSNGHGSMLIYSLLHLTGYDLPMEELKNFRQLHSKTPGHPEVGYTAGVETTTGPLGQGIANAVGMAIAEKTLAAQFNRPGHDIVDHYTYAFMGDGCMMEGISHEVCSLAGTLKLGKLIAFYDDNGISIDGPVEGWFTDDTAMRFEAYGWHVIRDIDGHDAASIKRAVEEARAVTDKPSLLMCKTIIGFGSPNKAGTHDSHGAPLGDAEIALTREQLGWKYAPFEIPSEIYAQWDAKEAGQAKESAWNEKFAAYAKAYPQEAAEFTRRMKGEMPSDFDAKAKEFIAKLQANPAKIASRKASQNAIEAFGPLLPEFLGGSADLAPYNLTLWSGSKAINEDAAGNYIHYGVREFGMTAIANGISLHGGFLPYTSTFLMFVEYARNAVRMAALMKQRQVMVYTHDSIGLGETGPTHQPVEQVASLRVTPNMSTWRPCDQVESAVAWKYGVERQDGPTALILSQQNLAQQERTEEQLANIARGGYVLKDCAGQPELIFIATGSEVELAVAAYEKLTAEGVKARVVSMPSTDAFDKQDAAYRESVLPKAVTARVAVEAGIADYWYKYVGLNGAIVGMTTFGESAPAELLFEEFGFTVDNVVAKAKELL
notes: as for B1
As for B7, the Km is recorded as 2.2 (0.4) mM, the kcat is 3.5 s⁻¹ and the kcat/Km is 1590 M⁻¹ s⁻¹.

Broadly, the kcat is the maximal rate divided by the concentration of active sites. A word on the kcat/Km: it is the second-order rate constant that governs catalysis at low substrate concentration.
